The subject of test [1] is MEDI-PANC-08^LUC PDX model. Briefly: Orthotopic luciferase expressing pancreatic PDX model efficacy. Type of test: in vivo, mice. The following applies: orthotopic MEDI-PANC-08^LUC; RAA2/B09 ADC 2 and 3 mg/kg Q1W×4; Gemcitabine 75 mg/kg; isotype control 3 mg/kg Q1W×4.
Experimental: The luciferase expressing PDX model (MEDI-PANC-08^LUC) was grown subcutaneously in NSG seed mice and at a volume of 800-1200 mm^3 the tumors were harvested and cut into fragments of approximately 2 mm^3. The tumor fragments were subsequently sutured to the pancreas of NSG mice (Day Zero). Luciferase signal was determined weekly using the IVIS Spectrum In vivo Imaging system. Briefly, 10 minutes prior to imaging, 200 ul of luciferin dissolved in DPBS (15 mg/ml) was injected intra-peritoneally (i.p.). The mice were anesthetized under 3% isoflurane, laid on their right side and luminescence measured. Fourteen days after tumor implant, when luminescent signal was clearly detectable, the mice were randomized into their respective groups based on the luminescence. […] Luminescence was measured weekly. Study endpoints included body weight loss, deterioration of body condition and lethargy. Data were analyzed using the Living Image software (Perkin Elmer) and plotted as Average Radiance [p/s/cm2/sr] against time.
The subject of test [2] is Cynomolgus monkey cMET. Briefly: ELISA species cross reactivity. Type of test: binding. On the procedure:
(§1) Specificity for EGFR and cMET species paralogs and closely related family members was determined by ELISA. Briefly, antigen solutions were prepared in PBS at 1 μg/mL and 50 microliters was coated onto half area ELISA assay plates. Plates were washed and blocked with 1% BSA in PBS containing 0.005% Tween-20 (PBS-T) for one hour at room temperature. The wells were washed 4 times in PBS-T. As set out in FIG. 3, the primary antibodies used where: R374 (a non-binding IgG1 isotype control antibody), B09 (anti-cMET antibody), QD6 (anti-EGFR antibody), RAA22 (anti-EGFR antibody), QD6/B09 (bispecific EGFR/c-MET DuetMAb), RAA22/B09 (bispecific EGFR/c-MET DuetMAb), PaniX (anti-EGFR antibody), MetMab (anti-cMET antibody) and Mab11311 (anti-HER4 antibody). Wells were incubated with 50 microliters of the indicated primary antibodies diluted in PBS-T in a 1:3 dilution series, starting at 10 μg/mL and ending at 0.002 μg/mL, except for the HER4 binding mAb control, MAB1131, for which the series started at 1 μg/mL. The wells were washed 4 times in PBS-T, then 50 μl of goat anti-human Fab HRP-labeled secondary antibody, diluted 1:5000 in PBS-T, was added to each well and incubated for one hour at room temperature. […] 50 microliters of TMB stop solution was added to all wells and the absorbance was read at 450 nm on a SpectraMax M5 microplate reader. Data were analyzed in the SoftMax Pro 5 software and plotted using GraphPad Prism 7 graphing software.
(§2) To determine the species cross reactivity, ELISA assays were carried out as described above. […] There was no detectable binding of any of the antibodies to mouse cMET.

Test [3] concerns the target T1, Human cMET (Homo sapiens, UniProt P08581). Briefly: ELISA species cross reactivity. It is filed as binding. On the procedure:
as §1, §2
On the technique in general: An ELISA detects its analyte on a solid surface through an enzyme-linked reagent.

The target in test [4] is human cMET receptor with the HGF ligand (Homo sapiens, UniProt P08581). Briefly: HGF:cMET HTRF ligand receptor inhibitory binding assay. The following applies: purified IgG2 antibodies. The text has this: cMET-specific scFv antibodies were isolated from a large naïve human scFv phage display library in a series of repeated panning selection cycles on recombinant mammalian expressed biotinylated monomeric human cMET (MedImmune) essentially as described (Vaughan, 1996). ScFvs from the round 2 of the selection output were expressed in the bacterial periplasm and screened for their ability to inhibit the binding of the human cMET receptor with the HGF ligand in a HGF:cMET HTRF® (Homogeneous Time-Resolved Fluorescence) ligand receptor inhibitory binding assay. […] Unique genes were then converted to human immunoglobulin G2 (IgG2) antibodies and produced in mammalian cells essentially as described (Persic; 1997). The purified antibodies were then ranked based on their inhibitory effect in the HGF:cMET HTRF® binding assay.
human cMET receptor with the HGF ligand, sequence (P08581 25-932 limits assumed): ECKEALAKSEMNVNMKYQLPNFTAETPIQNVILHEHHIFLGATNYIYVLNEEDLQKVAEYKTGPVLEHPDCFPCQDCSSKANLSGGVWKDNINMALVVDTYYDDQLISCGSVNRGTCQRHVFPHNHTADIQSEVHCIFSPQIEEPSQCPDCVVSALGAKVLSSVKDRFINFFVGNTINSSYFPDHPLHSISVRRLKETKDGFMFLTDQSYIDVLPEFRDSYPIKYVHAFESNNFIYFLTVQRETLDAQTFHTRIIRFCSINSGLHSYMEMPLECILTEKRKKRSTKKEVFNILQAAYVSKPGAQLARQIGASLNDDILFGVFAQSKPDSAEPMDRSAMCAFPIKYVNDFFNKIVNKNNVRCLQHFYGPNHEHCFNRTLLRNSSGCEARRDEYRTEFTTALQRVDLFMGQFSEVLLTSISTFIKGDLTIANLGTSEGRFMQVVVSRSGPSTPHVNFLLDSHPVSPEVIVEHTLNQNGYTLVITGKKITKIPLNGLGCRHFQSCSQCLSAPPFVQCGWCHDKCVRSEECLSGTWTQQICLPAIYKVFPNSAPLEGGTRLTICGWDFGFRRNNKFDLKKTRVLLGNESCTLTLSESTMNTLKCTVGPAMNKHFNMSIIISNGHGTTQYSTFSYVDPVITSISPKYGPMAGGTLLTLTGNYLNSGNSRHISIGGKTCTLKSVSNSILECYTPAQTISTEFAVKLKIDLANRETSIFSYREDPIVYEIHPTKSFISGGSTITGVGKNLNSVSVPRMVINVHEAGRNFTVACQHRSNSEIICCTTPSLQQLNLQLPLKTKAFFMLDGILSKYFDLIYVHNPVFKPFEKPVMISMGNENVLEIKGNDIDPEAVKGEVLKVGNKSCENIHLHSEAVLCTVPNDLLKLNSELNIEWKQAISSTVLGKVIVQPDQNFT
To minimize potential immunogenicity, non-Vernier framework residues (Foote and Winter 1992) in the variable framework regions of 0021U3-B09 were targeted specifically and altered to match the closest human germline sequence. In the VH region, seven amino acid residues were mutated to match the reference human germline sequence IGHV1-8*01. In the VL region, three residues were mutated to match the reference human germline sequence IGKV1-5*03. All residues in VH and VL regions were successfully changed to the germline residues without loss of activity. […]
(In general: TR-FRET usually uses a lanthanide donor and a delayed reading to cut background.)

Test [5] addresses T2, Human EGFR (Homo sapiens, UniProt P00533). Briefly: SPR (BIAcore T200) antibody capture kinetics. It is filed as binding. On the procedure: (§3) Mouse anti-human IgG was immobilized on a CM4 sensor chip with a final surface density of ˜2000 resonance units (RUs). A reference flow cell surface was also prepared on this sensor chip using identical immobilization protocol. Test and control article antibodies were prepared at 5-20 nM in instrument buffer (HBS-EP buffer; 0.01M HEPES, pH 7.4, 0.15M NaCl, 3 mM EDTA, and 0.005% P-20), along with 3-fold serial dilutions of purified EGFR (0.27-200 nM human, 0.4-900 nM cyno, and 4-1000 nM murine) or cMET proteins (0.27 to 66 nM human and 0.27-22 nM cyno) in instrument buffer. A sequential approach was utilized for kinetic measurements. Antibodies were first injected over the capture surface, at a flow rate of 10 μL/minute. Once the binding of the captured antibody stabilized, a single concentration of the analyte was injected over both capture and reference surfaces, at a flow rate of 75 μL/minute. The resulting binding response curves yielded the association phase data. Following the injection of analyte, the flow was then switched back to instrument buffer for 15 minutes to permit the collection of dissociation phase data, followed by a 1-minute pulse of 10 mM glycine, pH 1.5, to regenerate the antibody-captured surface on the chip. Binding responses against test and control article antibodies were recorded from duplicate injections of each concentration of analyte. In addition, several buffer injections were interspersed throughout the injection series. Select buffer injections were used along with the reference cell responses to correct the raw data sets for injection artifacts and/or nonspecific binding interactions, commonly referred to as “double referencing”. Corrected binding data were globally fit to a 1:1 binding model (Biacore T200 Evaluation software 2.0, GE Healthcare, Pittsburgh, PA).

Another test deals with T3, Mouse cMET (Mus musculus, UniProt P16056).
T3 construct: purchased SinoBiological 50622-M08H
T3 sequence (P16056 25-929 limits assumed): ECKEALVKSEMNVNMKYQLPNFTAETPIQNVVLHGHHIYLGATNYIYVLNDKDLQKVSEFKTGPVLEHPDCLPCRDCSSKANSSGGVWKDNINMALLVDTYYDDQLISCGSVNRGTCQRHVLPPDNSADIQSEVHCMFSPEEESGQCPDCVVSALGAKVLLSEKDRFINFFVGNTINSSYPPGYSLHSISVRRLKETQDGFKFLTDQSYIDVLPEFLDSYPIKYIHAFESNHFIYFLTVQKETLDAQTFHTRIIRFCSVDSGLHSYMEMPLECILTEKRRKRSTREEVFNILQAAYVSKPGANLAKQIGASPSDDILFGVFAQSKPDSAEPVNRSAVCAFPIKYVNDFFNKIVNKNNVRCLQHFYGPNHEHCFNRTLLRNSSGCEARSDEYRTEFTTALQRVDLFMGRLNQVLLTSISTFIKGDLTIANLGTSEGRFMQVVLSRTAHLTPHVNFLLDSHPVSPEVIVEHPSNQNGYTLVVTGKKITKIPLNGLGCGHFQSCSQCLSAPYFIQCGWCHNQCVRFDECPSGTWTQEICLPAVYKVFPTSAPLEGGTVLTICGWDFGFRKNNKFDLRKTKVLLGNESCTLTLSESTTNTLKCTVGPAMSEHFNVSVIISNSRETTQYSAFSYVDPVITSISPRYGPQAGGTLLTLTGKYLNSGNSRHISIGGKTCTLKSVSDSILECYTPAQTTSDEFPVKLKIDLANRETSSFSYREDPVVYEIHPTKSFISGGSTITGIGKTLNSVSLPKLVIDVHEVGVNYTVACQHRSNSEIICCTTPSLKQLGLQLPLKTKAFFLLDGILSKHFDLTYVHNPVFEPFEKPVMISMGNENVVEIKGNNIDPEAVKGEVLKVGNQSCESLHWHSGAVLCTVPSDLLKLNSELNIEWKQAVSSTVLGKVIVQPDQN
Briefly: SPR (BIAcore T200) antibody capture kinetics. Type of test: binding. On the procedure:
as §3
In general terms: Surface plasmon resonance follows binding to a sensor surface in real time, without labels.

Test [6] concerns Cynomolgus monkey cMET. Nature of the test: SPR (BIAcore T200) antibody capture kinetics. It is filed as binding. On the procedure:
as §3

Test [7] concerns the target T4, Mouse EGFR (Mus musculus, UniProt Q01279).
T4 construct: purchased SinoBiological 51091-M08H
Nature of the test: SPR (BIAcore T200) antibody capture kinetics. Type of test: binding. On the procedure: as §3

For test [8], the target named is Cynomolgus monkey EGFR. Nature of the test: SPR (BIAcore T200) antibody capture kinetics. It is filed as binding. On the procedure: as §3
In test [9] the target is T1, Human cMET. Briefly: SPR (BIAcore T200) antibody capture kinetics. It is filed as binding. On the procedure: as §3
Another test relates to Semaphorin 3a. Nature of the test: ELISA family specificity. It is filed as binding. On the procedure: as §1
In the next test the target is Ron (CD136) (Homo sapiens, UniProt Q04912). Briefly: ELISA family specificity. It is filed as binding. On the procedure: as §1
For test [10], the target named is T2, Human EGFR. Nature of the test: ELISA species cross reactivity. Type of test: binding. To be noted: antibody 10 to 0.002 μg/mL. On the procedure: as §1, §2
Test [11] deals with T4, Mouse EGFR. Nature of the test: ELISA species cross reactivity. It is filed as binding. On the procedure:
as §1, §2

In test [12] the test system is Cynomolgus monkey EGFR. Briefly: ELISA species cross reactivity. Type of test: binding. On the procedure: as §1, §2
The target in the next test is HER3 (Homo sapiens, UniProt P21860). Nature of the test: ELISA family specificity. It is filed as binding. On the procedure: as §1
The next test deals with HER4 (Homo sapiens, UniProt Q15303). Briefly: ELISA family specificity. It is filed as binding. On the procedure:
as §1

A further test deals with HER2 (Homo sapiens, UniProt P04626). Nature of the test: ELISA family specificity. Type of test: binding. On the procedure: as §1

Results on three molecules are retold here after patent US20260166140A1, “Combinations Involving Epidermal Growth Factor Receptor Tyrosine Kinase Inhibitors For the Treatment of Cancer” (AstraZeneca AB, priority 2022, published 2026).

T1 sequence (P08581 25-932): as the sequence (P08581 25-932 limits assumed) above
Cynomolgus monkey cMET, sequence (as listed by the source): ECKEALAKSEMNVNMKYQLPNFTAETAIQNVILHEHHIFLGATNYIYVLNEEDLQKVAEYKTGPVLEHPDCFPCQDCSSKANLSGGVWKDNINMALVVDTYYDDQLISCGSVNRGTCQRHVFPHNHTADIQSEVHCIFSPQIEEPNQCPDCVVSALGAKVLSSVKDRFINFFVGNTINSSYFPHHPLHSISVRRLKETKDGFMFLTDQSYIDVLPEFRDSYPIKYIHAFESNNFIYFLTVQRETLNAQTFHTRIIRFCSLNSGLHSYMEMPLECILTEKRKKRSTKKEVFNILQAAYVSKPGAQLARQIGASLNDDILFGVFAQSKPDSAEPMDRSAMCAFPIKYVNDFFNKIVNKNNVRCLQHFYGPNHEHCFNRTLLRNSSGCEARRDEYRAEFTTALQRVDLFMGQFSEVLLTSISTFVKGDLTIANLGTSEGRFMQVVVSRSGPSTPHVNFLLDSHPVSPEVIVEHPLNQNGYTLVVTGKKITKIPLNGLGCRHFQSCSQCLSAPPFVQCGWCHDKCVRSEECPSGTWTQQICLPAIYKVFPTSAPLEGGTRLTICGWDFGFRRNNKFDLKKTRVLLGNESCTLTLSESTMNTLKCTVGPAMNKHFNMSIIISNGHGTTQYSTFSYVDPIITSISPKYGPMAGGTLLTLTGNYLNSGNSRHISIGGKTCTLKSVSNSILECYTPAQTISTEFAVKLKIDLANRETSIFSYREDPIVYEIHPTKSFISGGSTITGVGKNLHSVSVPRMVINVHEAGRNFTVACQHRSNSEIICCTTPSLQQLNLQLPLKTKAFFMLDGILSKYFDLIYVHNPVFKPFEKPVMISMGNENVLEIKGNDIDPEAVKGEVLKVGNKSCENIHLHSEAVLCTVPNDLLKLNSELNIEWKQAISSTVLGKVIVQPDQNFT
HER4, sequence (Q15303 26-1308, species assumed): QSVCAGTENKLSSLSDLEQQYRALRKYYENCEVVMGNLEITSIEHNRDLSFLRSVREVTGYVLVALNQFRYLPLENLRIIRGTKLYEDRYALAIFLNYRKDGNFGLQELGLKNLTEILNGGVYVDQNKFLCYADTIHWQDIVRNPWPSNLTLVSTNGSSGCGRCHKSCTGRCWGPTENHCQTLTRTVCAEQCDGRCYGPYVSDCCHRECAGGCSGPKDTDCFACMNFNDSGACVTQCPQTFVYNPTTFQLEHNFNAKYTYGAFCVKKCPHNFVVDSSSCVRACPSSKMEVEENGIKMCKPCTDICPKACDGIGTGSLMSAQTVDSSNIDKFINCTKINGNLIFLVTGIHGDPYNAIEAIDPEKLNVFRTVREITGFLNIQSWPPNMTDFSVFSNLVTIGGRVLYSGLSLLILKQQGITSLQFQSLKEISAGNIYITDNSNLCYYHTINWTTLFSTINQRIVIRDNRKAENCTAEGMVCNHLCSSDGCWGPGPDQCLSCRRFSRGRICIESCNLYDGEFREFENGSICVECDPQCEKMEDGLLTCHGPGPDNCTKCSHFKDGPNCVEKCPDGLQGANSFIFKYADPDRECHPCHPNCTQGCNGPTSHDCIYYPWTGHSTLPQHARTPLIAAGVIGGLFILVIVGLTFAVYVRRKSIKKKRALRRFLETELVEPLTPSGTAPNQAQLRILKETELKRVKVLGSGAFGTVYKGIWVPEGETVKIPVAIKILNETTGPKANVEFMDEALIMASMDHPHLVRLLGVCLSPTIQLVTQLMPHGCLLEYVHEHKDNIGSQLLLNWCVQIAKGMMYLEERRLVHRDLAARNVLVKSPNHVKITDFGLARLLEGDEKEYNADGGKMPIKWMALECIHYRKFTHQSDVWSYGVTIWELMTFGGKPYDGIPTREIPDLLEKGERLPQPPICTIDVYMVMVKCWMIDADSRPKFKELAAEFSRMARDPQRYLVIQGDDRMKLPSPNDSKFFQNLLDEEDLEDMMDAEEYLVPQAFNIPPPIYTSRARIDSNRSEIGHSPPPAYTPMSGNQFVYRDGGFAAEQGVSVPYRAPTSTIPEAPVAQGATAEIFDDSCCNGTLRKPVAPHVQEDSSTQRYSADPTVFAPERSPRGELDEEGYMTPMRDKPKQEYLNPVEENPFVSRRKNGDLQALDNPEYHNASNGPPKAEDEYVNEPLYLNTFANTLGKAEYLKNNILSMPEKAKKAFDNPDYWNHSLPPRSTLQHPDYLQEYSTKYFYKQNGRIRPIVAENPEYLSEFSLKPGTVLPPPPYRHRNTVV

`Nc1ccn([C@@H]2O[C@H](CO)[C@@H](O)C2(F)F)c(=O)n1` [Gemcitabine]: in test [1], the luminescent signal result is given as “initial reduction in the luminescent signal reaching a nadir around day 21, after which the signal increased over time”.

B1: B09-57 IgG: affinity optimized, germlined anti-cMET antibody derived from 0021U3-B09, VH SEQ ID NO: 38, VL SEQ ID NO: 40 (antibody, V domains shown)
VH: QVQLVQSGAEVKKPGASVKVSCKASGYTFTDYYIHWVRQATGQGLEWMGWMNPNSGNTGYAQKFQGRVTMTRDTSISTAYMELSSLRSEDTAVYYCARGQGYTHSWGQGTMVTVSS
VL: DIQMTQSPSTLSASVGDRVTITCRASEGIYHWLAWYQQKPGKAPKLLIYKASSLASGVPSRFSGSGSGTEFTLTISSLQPDDFATYYCQQYSNYPPTFGGGTKLEIK
On to B1, for which the ELISA binding result is “comparable binding” in the test on Cynomolgus monkey cMET [2], “comparable binding” with Human cMET [3], “no binding” in the test with Semaphorin 3a and “no binding” with Ron (CD136). In [4], the “rank by inhibitory effect in the HGF:cMET HTRF binding assay” value is recorded as “most potent antibody”. Further, the KD result with Human EGFR [5] (KD calculated as koff/kon), with Mouse cMET, with Mouse EGFR [7] (koff/kon) and at Cynomolgus monkey EGFR [8] (koff/kon) was “No binding detected at 200 nM” throughout. Moreover, the Koff was 0.00194 s⁻¹ in the test with Cynomolgus monkey cMET [6] (25° C.) and 0.000882 s⁻¹ with Human cMET [9] (25° C.). Also, the Kon in the test with Cynomolgus monkey cMET [6] (25° C.) was 1.04e+06 M⁻¹ s⁻¹; with Human cMET [9] (25° C.), 563000 M⁻¹ s⁻¹.

B2: RAA22 IgG: low affinity anti-EGFR IgG1 antibody clone, VH SEQ ID NO: 16, VL SEQ ID NO: 20 (antibody, V domains shown)
VH: QVQLVQSGAEVKKPGSSVKVSCKASGGTFSDNDFSWVRQAPGQGLEWMGAIVAVFRTETYAQKFQDRVKITADISTRTTYMELSSLRSEDTAVYYCARRLMSAISGPGAPLLMWGQGTLVTVSS
VL: QSALTQPRSVSGSPGQSVTISCTGTSSDVGGYNYVSWYQQHPGKAPKLMIYDVSKRPSGVPDRFSGSKSGNTASLTISGLQAEDEADYYCSSYTSSDTLEIFGGGTKLTVL
B2: the ELISA binding result was “bound more weakly” with Human EGFR [10]; “weak, but detectable” with Mouse EGFR [11]; “bound more weakly” with Cynomolgus monkey EGFR [12]; “no binding” with HER3; “no binding” in the test with HER4; “no binding” with HER2. The Koff with Human EGFR [5] (25° C.) came out at 0.00206 s⁻¹; in the test with Mouse EGFR [7] (25° C.), 0.019 s⁻¹; in the test with Cynomolgus monkey EGFR [8] (25° C.) it was 0.00601 s⁻¹. The Kon in the test with Human EGFR [5] (25° C., 1:1 binding model) was determined as 44100 M⁻¹ s⁻¹; with Mouse EGFR [7] (25° C.), 40300 M⁻¹ s⁻¹; in the test on Cynomolgus monkey EGFR [8] (25° C.), 35400 M⁻¹ s⁻¹. For the same molecule, the KD entry with Mouse cMET, on Cynomolgus monkey cMET [6] (koff/kon) and in the test with Human cMET [9] (koff/kon) was “No binding detected at 200 nM” in each case.
